{"source": "the DeepSol protein solubility set"}
{"test": "soluble on expression in E. coli; label from the status in PepcDB or PDB records"}
{"sequence": "MNKELTFNDLPMVVAQLRDEVVGMKQMIVSLQSQNKPHKANTHIPMSVEEASAYLKMPMATLYMKLGNGSIPATKPGKRYCLYQDELDKWLETNRKNPVPLTAEEENAAILAGNKRKPKPLNW", "soluble on expression in E. coli": "not soluble"}
{"sequence": "MNKLITVIRDFSYSVYNWCYETVIGENTRKYKMTWKVPKESLKIIVNKNADARMQRELENRTAKDEANALTSRRRVFGSYALIGTQRAEFIQFRQIKHIDITNASLDFLYNLKQLKHDNLANFYGIQLNDDLNTMTILHALVERGTLEEFCLDRDFGMDETFKSAFMRDILKGLQYLHLSPVAYHGHLHAATCLIDINWVLKIALYGVTNFVCDNFDAENITMPDRSDYTISYAQYVCFPPEHIREYDATGKLPTRFVRGSKQGDIYCVGMIFYMMIEREDPYRLIHSVERPGSGLMMEILDHNLMPFISNNETQEDTLLDKCKECWNRDPEKRPTIENLRNAIAICYADSKGNLIDQMIRMNEKYADELETLVAARSADLALAQMQTMRLLNEMLPASIAKDLKNGVIAPARSYASATVMFVQICDFIVILKRRPPKEVIGFLNDIFDQFDTVIKRHDVETTGETYMVASGVPNENEGRHVFEVAEMSLEIRAISLSYTLENDKNYKLRVRIGFHAGPIAAGVIGIKNPRYCLFGDTVNFASRMQSNCPPLQIQTSEITARMLLATHEYKLVKRGIVHVKGKGEVNCYWLNEHIHKDEEIEESGTISHPLES", "soluble on expression in E. coli": "not soluble"}
{"sequence": "MNKLQSYFIASVLYVMTPHAFAQGTVTIYLPGEQQTLSVGPVENVVQLVTQPQLRDRLWWPGALLTDSAAKAKALKDYQHVMAQLASWEAEADDDVAATIKSVRQQLLNLNITGRLPVKLDPDFVRVDENSNPPLVGDYTLYTVQRPVTITLLGAVSGAGQLPWQAGRSVTDYLQDHPRLAGADKNNVMVITPEGETVVAPVALWNKRHVEPPPGSQLWLGFSAHVLPEKYADLNDQIVSVLTQRVPD", "soluble on expression in E. coli": "not soluble"}
{"sequence": "MNKSHLGTADNPQEVVTAHDIGRLVDVVNVGKGFLRYVGPIHGKDGMFCGIELLEPNGKHDGTFQGVSYFIATPYHGIFAPIFRVTLDAEELPKPPPPNPSNRLSRSALPALQLRNPLTQERKPEEDVMSTSVYVSSSTKPIAIPTKQCRPPETDPMQMSMFSDMMDGSMFSNGSWSDIADSMITSNCTFTVRKGLPIDDDGDLMSVPMVQSVFNIDREALRREEQLQSSIVLGESRIGVEHLPIIEDENELETPLVETRTMPLPNDLNANFSNKNSTTTFVEPETPKVEIRENGNLDNSIETPPQQSPSGSSMVSHESDSSSKKDDTKSDKSPTKKSQKMEEKPVVKKKEEPAAPPPPPKFPVKQKAPSKHQLMMEQLKASIEAEKTKPKKEIKSRVSLLPPPAPKAPQKENKEGGEMTETPRRTITKTPLKTVNAKAKTSPTPPVERQKKERKPLYVAPPAKERVEKEKKIPSKPVVSPPTTAEKKPVVSSIPSTSSASKGPFPTSSFAGGKLQGPRKTSSSSTTTSAKKQKNPPIDEKEKLSRLQHSTHAFEATLIVMNRINEDNERKLGNISEQYEKKVSELGDLKKMLDEARKKFEEDVEQMKNSNQQVIRNHANAVESLQKTHETQIAEKNKEFERNFEEERARREAEVCAMNNRHQKVVACLDEKISEAEKQCEQLNVDKKVLQAALANDCDHRNQMLTKEISSLQTALEMKSAEMKELRQKNQNLSLQVDEIPLKELEISKWKHKSNEYKQMLDQKINGEKILVQQIEDLRRKQIHDEEEKEAMKRSFDLMQFKYENGDDPNVTSVMSAPMESRFSTPTKVQFRSRSSASGSRPISMATSNGGDQRLSTSSHHDDSMNRSTISMYTSHIRLPENHADDVIYAPDEIISSRSGSISQRLAISIENDGEPTIKSESSRIGNTSDSGIGLVM", "soluble on expression in E. coli": "not soluble"}
{"sequence": "MNKTWWKEAVAYQIYPRSFMDSNGDGIGDLQGIIAKLDYLKDLGIDVIWICPMYKSPNDDNGYDISDYQDIMDEFGTMEDFDALLDEVHKRDMKLIIDLVINHTSDEHPWFIESRSSKDNPKRDWYIWHDGKDGAEPNNWESIFNGSAWEYDEVTGQYYLHLFSRKQPDLNWENKEVREVLYDTVNWWLDKGIDGFRVDAISHIKKEDGFKDMPNPKGLKYVPSFDKHMNVDGIQPLLEELKENTFSKYDIMTVGEANGVKIEDAELWVGEEQGKFNMVFQFEHLSLWDAEKKKDLDVVGLKKVLTKWQKGLENKGWNALYIENHDKPRIVSTWGDDKQYWRESATALGAMYFFMHGTPFIYQGQEIGMTNVQFPNIEDYDDVAIKNLYREKIAEGVSHQDMMEIIWASCRDNSRTPMHWDDEINAGFTTGTPWFGMNQNYKEINVAKQKNEENSIFNFYKKMIALKKEHDVLNYGTYDLLLEDDPQIYAYTRTLNDEKIVVISNISKEEAVYNEDLFALERKRLLLNNYEVAEHEQLTTITLKPYETRVYRIS", "soluble on expression in E. coli": "not soluble"}
{"sequence": "MNLMLCCTPLQVLIARKIIELHPNEQFFGVMFGGVWDKKRTLYASKLAEVCSDSMNIDTGKDLKGFDFLKLMRQLKNKITHKGFDKVFLANLNSLWLQTYLSHVSFKELYTFDDGSDNIFPHPNLLREPGTFKYKLIKAFIGDKYSVNKLFKKIKKHYTVYPNYKNIVSNIEPISLWDNQIDCEIDGEVSFFIGQPLLNTKEENISLIKKLKDQIPFDYYFPHPAEDYRVDGVNYVESELIFEDYVFKHLSNKIIIYTFFSSVAFNLLSHPNVEIRFIRTSIPRWQFCYDSFPDLGLTIYKEILEHHHHHH", "soluble on expression in E. coli": "soluble"}
{"sequence": "MNLRGILPFAHDTLRKVVRSGDYVVDATCGNGHDTLLLAELVGINGHVLGFDIQQLAIDATNTRLENAGVSSQVELVCASHARIPEYTSKPVRAAIFNLGYLPGGDKEITTTADSTLESIGHLMELLEVGGVIILVIYHGHPAGKQEKDAVMTFCEAIPQQDFHVLSYNFINQKNDAPFVIIIEKRKPRQSLEHHHHHH", "soluble on expression in E. coli": "soluble"}
{"sequence": "MNLRKPSAWTALALSISTGPAAAGTVTSATLAASTLSPDCLEYKVVGICYWLLCTPFGCKVKTSTKVRHYVPDAVVSSYSNTGENPWVEVSSLSSPTSFAQDGGDGTTSHNNEDNLAKFKNTDVIGHPGGATFSKFASASGYACQGAATPYMPYLLSTLDTIAWRYGVPESAYPEALIPGQREVGGLTSGDMWGSLYPRSGFIHQADDYKAAAVIAQRAGDVVTRRGQIHIYQPLLAKPQSGYWPAGELIETDASTGKWQELTPTLSQSCAVFPNSQPRVQATDGGYAWALWRPYSCCKRQGQTFLGSTDFQLEHHHHHH", "soluble on expression in E. coli": "not soluble"}
{"sequence": "MNLTVSHLDKLRLPLLHKIYKENYPSGKPKGKEEIIVIEGDKKILGAMRIKTYEECHFLTGMMIIKERRGESLGSQLLFKLNEFLSLEHCYCFCEPQLSEFYLKNDFIHIDKKNIPHVLKSKHDRYTNTGKELDILLYKKTNN", "soluble on expression in E. coli": "not soluble"}
{"sequence": "MNLVKLLANNWQPIAIIALVGTGLAVSHHQGYKSAFAKQQAVIDKMERDKAQALLLSAQNYARELELARAEAKKYEVKAHAVGMALAKKQAEVSRLKTERDLCKIPFPPDSRNPNTGFRLFSPQIPPNFTQIPP", "soluble on expression in E. coli": "not soluble"}
{"sequence": "MNMNQTTSPALSQVETAIRVPAGNFAKYNYYSVFDIVRQTRKQFINANMSWPGSRGGKTWDLAMGQAQYIRCMFRENQLTRRVRGTLQQTPDNGTNLSSSAVGGIQGQAERRPDLATLMVVNDAINQQIPTLLPYHFPHDQVELSLLNTDVSLEDIISESSIDWPWFLSNSLTGDNSNYAMELASRLSPEQQTLPTEPDNSTATDLTSFYQTNLGLKTADYTPFEALNTFARQLAITVPPGGTVDCGYSACQPAVLEHHHHHH", "soluble on expression in E. coli": "not soluble"}
{"sequence": "MNMTKNTMGTKLPRKLEQKMAVVGEQIKLARLRRNLSVAQVAERATCSPLTVSRIEKGAPTVAIGIYLRVLYALQLDDDILWLAKEDKLGKTLQDLSLKTRERASKKE", "soluble on expression in E. coli": "not soluble"}
{"sequence": "MNNKEKGDFGEKVAVNYLLSKGAKILEKNYRLKIGEIDIIAKMEDEIIFVEVKSRSNIKFGYPCESVSFKKRKKIIGVASYYIIKNNLNNTPIRFDVIEVYLLEKRINHIMNAF", "soluble on expression in E. coli": "not soluble"}
{"sequence": "MNNQFIQRVIFDWNRIDNDSYLKGIEAFKGIEKLDFNKPITFFVGENGSGKSTLLEALAVAHGFNPEGGTKNYVFSTHDTHSELCDAIRIAKGYRKEKWGYFLRAESFYNVATQEEEYADITHPSAKYHEKSHGESFLALAQNNMNPNGLYLFDEPEAALSPQRQLTLLMQIYRCAKEGAQFIIVTHSPILLGIPDADIYCFDNGCIHLCEYEDTESYQVTEMFINNRQMLLDRLLTD", "soluble on expression in E. coli": "not soluble"}
{"sequence": "MNNSINHKFHHISRAEYQELLAVSRGDAVADYIIDNVSILDLINGGEISGPIVIKGRYIAGVGAEYTDAPALQRIDARGATAVPGFIDAHLHIESSMMTPVTFETATLPRGLTTVICDPHEIVNVMGEAGFAWFARCAEQARQNQYLQVSSCVPALEGCDVNGASFTLEQMLAWRDHPQVTGLAEMMDYPGVISGQNALLDKLDAFRHLTLDGHCPGLGGKELNAYITAGIENCHESYQLEEGRRKLQLGMSLMIREGSAARNLNALAPLINEFNSPQCMLCTDDRNPWEIAHEGHIDALIRRLIEQHNVPLHVAYRVASWSTARHFGLNHLGLLAPGKQADIVLLSDARKVTVQQVLVKGEPIDAQTLQAEESARLAQSAPPYGNTIARQPVSASDFALQFTPGKRYRVIDVIHNELITHSHSSVYSENGFDRDDVSFIAVLERYGQRLAPACGLLGGFGLNEGALAATVSHDSHNIVVIGRSAEEMALAVNQVIQDGGGLCVVRNGQVQSHLPLPIAGLMSTDTAQSLAEQIDALKAAARECGPLPDEPFIQMAFLSLPVIPALKLTSQGLFDGEKFAFTTLEVTELEHHHHHH", "soluble on expression in E. coli": "soluble"}
{"sequence": "MNPFHELEPGPEVPEVVYALIEIPKGSRNKYELDKKTGLLKLDRVLYSPFFYPVDYGIIPQTWYDDGDPFDIMVIMREPVYPLTIIEARPIGIMKMEDSGDKDWKVLAVPVEDPYFNDWKDISDVPKAFLDEIAHFFQRYKELQGKTTKIEGWGNAEEAKREILRAIEMYKEKFGKEE", "soluble on expression in E. coli": "soluble"}
{"sequence": "MNPIAVTLLTGFLGAGKTTLLRHILNEQHGYKIAVIENEFGEVSVDDQLIGDRATQIKTLTNGCICCSRSNELEDALLDLLDNLDKGNIQFDRLVIECTGMADPGPIIQTFFSHEVLCQRYLLDGVIALVDAVHADEQMNQFTIAQSQVGYADRILLTKTDVAGEAEKLHERLARINARAPVYTVTHGDIDLGLLFNTNGFMLEENVVSTKPRFHFIADKQNDISSIVVELDYPVDISEVSRVMENLLLESADKLLRYKGMLWIDGEPNRLLFQGVQRLYSADWDRPWGDEKPHSTMVFIGIQLPEEEIRAAFAGLRK", "soluble on expression in E. coli": "soluble"}
{"sequence": "MNQPFLSVVIATFNVAEVLRECLHSLASQTFRDFEVVIQDGASTDGTLAVAQEAAGRLPRLSLASVADSGIYDAWNRALPRVTGDWVLFLGSDDTLAGPDVLAQCARRLADLPPQVLYACGDALEVYPDGSSRAVTCTAEGATRRMADHIPFCHSSLWHRACLFEARHFDATLRIAADYDLICRTWPHDGVGHTLGITVTHMGVGGVSSSPAHRLRTQWELVRVAARHGHGAFSRRRLVPLCKAVGLWVLCRLAGRRASVMLDRLRVMRGLPPCWTTADPARVGGRDSARGDALEHHHHHH", "soluble on expression in E. coli": "not soluble"}
